Measurements reported in patent publication US20030133907A1.

Target: T1, IFNG receptors on HeLa cells (UniProt P15260)
T1 sequence (looked up): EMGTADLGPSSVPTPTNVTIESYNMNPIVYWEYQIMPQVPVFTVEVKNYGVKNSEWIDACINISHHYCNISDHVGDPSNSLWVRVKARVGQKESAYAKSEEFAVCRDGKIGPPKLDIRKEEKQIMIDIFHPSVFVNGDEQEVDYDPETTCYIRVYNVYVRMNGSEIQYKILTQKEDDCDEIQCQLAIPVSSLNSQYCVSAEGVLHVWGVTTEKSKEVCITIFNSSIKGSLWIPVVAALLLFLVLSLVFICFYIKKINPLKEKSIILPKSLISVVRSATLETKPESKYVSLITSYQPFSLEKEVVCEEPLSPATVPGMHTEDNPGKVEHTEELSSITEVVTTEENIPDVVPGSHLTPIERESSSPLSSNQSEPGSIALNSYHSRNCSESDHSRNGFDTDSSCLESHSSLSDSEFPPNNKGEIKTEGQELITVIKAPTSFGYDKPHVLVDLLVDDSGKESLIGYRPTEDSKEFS
Assay: cell-based or functional assay

| Substance | Activity relative to non-PEGylated product subjected to “PEGylation procedure” (%), Primary Assay [%] | % activity of full-length wt (AU/ml basis), Primary Assay [%] | % activity of full-length wt (specific activity), Primary Assay [%] | Activity (AU/ml), Primary Assay (ISRE-luciferase in HeLa cells), after transient transfection [AU/ml] | Specific activity (AU/mg), Primary Assay (ISRE-luciferase in HeLa cells), after purification [AU/mg] | specific activity relative to the corresponding non-PEGylated IFNG variant, Primary Assay [%] |
| --- | --- | --- | --- | --- | --- | --- |
| E38C + S99T (full-length + 10 kDa mPEG) (from UniProt P01579 24-161) (ligand) | 41 | – | – | – | – | – |
| E38C + S99T (full-length) (from UniProt P01579 24-161) (ligand) | – | 71 | 16 | 1e+07 | 3.4e+06 | – |
| E38N (full-length) (from UniProt P01579 24-161) (ligand) | – | 100 | – | 1.4e+07 | – | – |
| E38N + K61T (full-length) (from UniProt P01579 24-161) (ligand) | – | 86 | – | 1.2e+07 | – | – |
| E38N + K61T + S99T (full-length) (from UniProt P01579 24-161) (ligand) | – | 10 | – | 1.4e+06 | – | – |
| E38N + S40T (full-length) (from UniProt P01579 24-161) (ligand) | – | 71 | – | 9.9e+06 | – | – |
| E38N + S40T + K94C + S99T (full-length) (from UniProt P01579 24-161) (ligand) | – | 7 | – | 940000 | – | – |
| E38N + S40T + N59C + S99T (full-length) (from UniProt P01579 24-161) (ligand) | – | 79 | – | 1.1e+07 | – | – |
| E38N + S40T + N83C + S99T (full-length) (from UniProt P01579 24-161) (ligand) | – | 5 | – | 720000 | – | – |
| E38N + S40T + S99T (full-length) (from UniProt P01579 24-161) (ligand) | – | 93 | 67 | 1.3e+07 | 1.4e+07 | – |
| E38N + S40T + S99T (truncated after Leu135) (from UniProt P01579 24-158) (ligand) | – | 29 | – | 4e+06 | – | – |
| E38N + S40T + S99T + N104C (full-length) (from UniProt P01579 24-161) (ligand) | – | 16 | – | 2.3e+06 | – | – |
| N10C + E38N + S40T + S99T (full-length) (from UniProt P01579 24-161) (ligand) | – | 11 | – | 1.5e+06 | – | – |
| N10C + S99T (full-length + 5 kDa mPEG) (from UniProt P01579 24-161) (ligand) | 23 | – | – | – | – | – |
| N10C + S99T (full-length) (from UniProt P01579 24-161) (ligand) | – | 18 | 18 | 2.5e+06 | 3.8e+06 | – |
| N16C + E38N + S40T + S99T (full-length) (from UniProt P01579 24-161) (ligand) | – | 26 | – | 3.7e+06 | – | – |
| N16C + S99T (full-length + 5 kDa mPEG) (from UniProt P01579 24-161) (ligand) | 59 | – | – | – | – | – |
| N16C + S99T (full-length + 10 kDa mPEG) (from UniProt P01579 24-161) (ligand) | – | – | 6 | – | 1.3e+06 | 15 |
| N16C + S99T (full-length) (from UniProt P01579 24-161) (ligand) | – | 79 | 11 | 1.1e+07 | 2.3e+06 | – |
| N59C + S99T (full-length + 5 kDa mPEG) (from UniProt P01579 24-161) (ligand) | – | – | 11 | – | 2.4e+06 | 15 |
| N59C + S99T (full-length) (from UniProt P01579 24-161) (ligand) | – | – | 30 | – | 6.3e+06 | – |
| S99T (full-length) (from UniProt P01579 24-161) (ligand) | – | 36 | 105 | 5.1e+06 | 2.2e+07 | – |
| S99T (truncated after Leu135) (from UniProt P01579 24-158) (ligand) | – | 25 | – | 3.5e+06 | – | – |
| S99T + N104C (full-length + 5 kDa mPEG) (from UniProt P01579 24-161) (ligand) | 42 | – | – | – | – | – |
| S99T + N104C (full-length) (from UniProt P01579 24-161) (ligand) | – | 36 | 17 | 5e+06 | 3.5e+06 | – |
| Wild-type (full-length) rhuIFNG (from UniProt P01579 24-161) (ligand) | – | – | – | 1.4e+07 | 2.1e+07 | – |
| Wild-type (truncated after Leu135) (from UniProt P01579 24-158) (ligand) | – | 45 | – | 6.3e+06 | – | – |
